The text below walks through data of paper PMC11053944, “FRET Assays for the Identification of C. albicans HSP90-Sba1 and Human HSP90α-p23 Binding Inhibitors” (Pharmaceuticals, 2024).

Series [1] concerns the molecule itself. The experiment in a line: cross-linking; glutaraldehyde cross-linking and SDS-PAGE (Coomassie): 10 µM HSP90 with equimolar Sba1 or mScarlet-I, reaction buffer, 15 min 30 °C, 5 mM ATP or 2 mM AMP-PNP; cross-linking 2 min at room temperature.
Series [2] deals with T1, C. albicans HSP90E36A-mNeonGreen (C. albicans, UniProt P46598 1-707, E36A).
T1 construct: HSP90 of C. albicans, UniProtKB P46598, ATP-hydrolysis-defective mutant E36A; As m1 with E36A; GGGGS linker before mNeonGreen; also called His6-HSP90E36A-mNeonGreen; source: E. coli BL21(DE3), purified (Ni-NTA, gel filtration); not shown: mNeonGreen, C-terminal, kept
The experiment in a line: FRET or BRET; Kd determination, C. albicans: 200 nM HSP90E36A-mNeonGreen, Sba1-mScarlet-I 0-3000 nM (lowest non-zero 10 nM), reaction buffer with 5 mM ATP, 30 °C (text; the legend of Figure 2 says 37 °C), measured after 180 min; mNeonGreen control subtracted; nonlinear regression. As to conditions: both partners purified. On the technique in general: In BRET a luciferase serves as donor, and the signal depends on an acceptor being close.

In series [3] the target is T2, C. albicans HSP90-mNeonGreen (C. albicans, UniProt P46598 1-707).
T2 construct: HSP90 of C. albicans, UniProtKB P46598; pET-11d: N-terminal His6, FXa site, XhoI site, protein, KpnI site; mNeonGreen joined to the C-terminus of HSP90 by a flexible linker GGGGS; No cleavage of the His6 tag is told; also called His6-HSP90-mNeonGreen; source: E. coli BL21(DE3), purified (Ni-NTA, gel filtration); not shown: mNeonGreen, C-terminal, kept
Briefly: FRET or BRET; competition, C. albicans: 1 µM HSP90-mNeonGreen and 1 µM Sba1-mScarlet-I with unlabeled Sba1 0-25,000 nM (lowest non-zero 12 nM), reaction buffer with 5 mM ATP; relative IC50 (four parameters), Ki by One Site - Fit Ki. As to conditions: both partners purified.

The target in the next series is T3, human HSP90α-mNeonGreen (human, UniProt P07900 1-732).
T3 construct: human HSP90α, UniProt P07900; DNA from a plasmid of a previous work of the lab; Cloned by restriction-ligation on the basis of the C. albicans FRET plasmids (His6, FXa site, protein, mNeonGreen at the C-terminus); also called His6-HSP90α-mNeonGreen; source: E. coli Rosetta2(DE3) pLysS, purified (Ni-NTA, gel filtration); not shown: mNeonGreen, C-terminal, kept
The experiment in a line: FRET or BRET; competition, human: 1 µM HSP90α-mNeonGreen and 1 µM p23-mScarlet-I with unlabeled p23 0-50,000 nM (lowest non-zero 23 nM), reaction buffer with 5 mM ATP; relative IC50 (four parameters), Ki by One Site - Fit Ki. As to conditions: both partners purified.

The target in series [4] is T4, human HSP90αE47A-mNeonGreen (human, UniProt P07900 1-732, E47A).
T4 construct: human HSP90α, UniProt P07900, ATP-hydrolysis-defective mutant E47A; As m3 with E47A; also called His6-HSP90αE47A-mNeonGreen; source: E. coli Rosetta2(DE3) pLysS, purified (Ni-NTA, gel filtration); not shown: mNeonGreen, C-terminal, kept
Briefly: FRET or BRET; Kd determination, human: 200 nM HSP90αE47A-mNeonGreen, p23-mScarlet-I 0-3000 nM (lowest non-zero 10 nM), reaction buffer with 5 mM ATP, 37 °C, measured after 180 min; mNeonGreen control subtracted; nonlinear regression. As to conditions: both partners purified.

Values joined by “and” are separate entries in the source; they are usually repeats but may differ in a detail not shown here. Equal entries are not always repeated.

B1: C. albicans HSP90 (without fluorescent protein) (natural protein)
chain: not shown
notes: HSP90 of C. albicans, UniProtKB P46598; Printed mass of the monomer 82.5 kDa, dimer 165 kDa; N-terminal His6 followed by an FXa site; also called His6-HSP90; source: E. coli BL21(DE3), purified (Ni-NTA, gel filtration)
In general, stoichiometry N refers to the number of molecules, sites or subunits per partner or assembly. Take B1: the “stoichiometry N” value in series [1] was found to be 2.

B2: C. albicans Sba1-mScarlet-I (natural protein, UniProt A0A1D8PQ94 1-221, looked up)
chain: MSSTTTQTPTVLWAQRSSEDDAAKNIIYLTIQISDPIDLKIDLKSDHLIIDSKSNDSVYSSIDYHLQIDFFKEIDPDQSKINTENGSHIFMILRKKDQQEEYWPRLTKEKLKYHYIKTDFDKWVDEDEQDEVKDDPNDFGGPGGPGGAMDFSQMLSGMGGLGGAGGSGGPGGVDLSALASQLGQAGGAGGAAGLDGEEGEEGEAEAKEAQEESNTTATEKE
notes: Sba1 of C. albicans, UniProtKB A0A1D8PQ94; mScarlet-I fused to the 3' end of Sba1, analogously to HSP90-mNeonGreen (there with a GGGGS linker); N-terminal His6 followed by an FXa site; also called His6-Sba1-mScarlet-I; source: E. coli BL21(DE3), purified (Ni-NTA, gel filtration); not shown: mScarlet-I, C-terminal, kept
As usually defined, the Kd is the equilibrium constant for the complex coming apart. With B2, binding in series [2] was put at a Kd of 100 nM.

B3: C. albicans Sba1 (unlabeled) (natural protein, UniProt A0A1D8PQ94 1-221, looked up)
chain: B2 chain
notes: Sba1 of C. albicans, UniProtKB A0A1D8PQ94; N-terminal His6 followed by an FXa site; also called His6-Sba1; unlabeled Sba1; source: E. coli BL21(DE3), purified (Ni-NTA, gel filtration)
In general, IC50 refers to the concentration at which inhibition is half-maximal. The term Ki denotes the equilibrium dissociation constant of an inhibitor or competing ligand from its target. A higher Ki goes with a looser hold on the target. Regarding B3, in series [3], the IC50 turned out to be 1950 nM and affinity was put at a Ki of 100 nM.

B4: human p23 (unlabeled) (natural protein, UniProt Q15185 1-160, looked up)
chain: MQPASAKWYDRRDYVFIEFCVEDSKDVNVNFEKSKLTFSCLGGSDNFKHLNEIDLFHCIDPNDSKHKRTDRSILCCLRKGESGQSWPRLTKERAKLNWLSVDFNNWKDWEDDSDEDMSNFDRFSEMMNNMGGDEDVDLPEVDGADDDSQDSDDEKMPDLE
notes: human p23, UniProt Q15185; N-terminal His6 followed by an FXa site; also called His6-p23; unlabeled p23; source: E. coli Rosetta2(DE3) pLysS, purified (Ni-NTA, gel filtration)
For the molecule B4, in the series with human HSP90α-mNeonGreen, the IC50 turned out to be 1420 nM and the inhibition constant (Ki) worked out at 100 nM.

B5: human p23-mScarlet-I (natural protein, UniProt Q15185 1-160, looked up)
chain: B4 chain
notes: human p23, UniProt Q15185; Cloned by restriction-ligation on the basis of the C. albicans FRET plasmids (His6, FXa site, protein, mScarlet-I at the C-terminus); also called His6-p23-mScarlet-I; source: E. coli Rosetta2(DE3) pLysS, purified (Ni-NTA, gel filtration); not shown: mScarlet-I, C-terminal, kept
With B5, the Kd in series [4] is 210 nM and 220 nM.
